Source: US20230151091A1 (NEW YORK UNIVERSITY, published 2023)
Changes are numbered by the printed parent chain. Numbers in names are those of the source.

B1: 3B2 (antibody, V domains shown)
VH: ELQLVESGGGLVQPGGSLRLSCAASGFTFDDYGMSWVRQAPGKGLEWVSAIPWNGGSTYYKESVKGRFTISRDNAKKTLYLQMNSLKSEDTAVYYCAKRSGRIAFGALDAWGQGTLVTVSS
VL: QAVVTQEPSLSVSPGGTVTLTCGLSSGSVTSSNYPDWYQQTPGQAPRGLIYSTDSRHSGVPSRFSGSISGNKAALTITGAQSEDEADYYCGLYMYSGSKNYVFGGGTKLTVL
notes: human IgG1 with the LALA mutations (L234A, L235A); produced in HEK293 cells; also called 3B2 mAb; parental 3B2 Ab
B2: X2 Fab (Fab, V domains shown)
VH: EVQLVESGGGLVQPGGSLRLSCAASGFTVSSSSIHWVRQAPGKGLEWVASISSSYGSTSYADSVKGRFTISADTSKNTAYLQMNSLRAEDTAVYYCARSEGDRYVSGYMGMDYWGQGTLVTVSS
VL: DIQMTQSPSSLSASVGDRVTITCRASQSVSSAVAWYQQKPGKAPKLLIYSASSLYSGVPSRFSGSRSGTDFTLTISSLQPEDFATYYCQQSGVWLITFGQGTKVEIK
notes: Fab format
B3: X3 Fab (Fab, V domains shown)
VH: EVQLVESGGGLVQPGGSLRLSCAASGFTISSSSIHWVRQAPGKGLEWVASISSSSGYTYYADSVKGRFTISADTSKNTAYLQMNSLRAEDTAVYYCARSWYEMWMSGYFGFDYWGQGTLVTVSS
VL: B2 VL with G92S, V93S, W94S
notes: Fab format

Experiments:
[1] = target: T1, mouse MuSK, endogenous (C2C12 myotubes; neuromuscular synapses of mice) (mouse, UniProt Q61006 22-868); test: cell-based or functional assay
T1 sequence (looked up): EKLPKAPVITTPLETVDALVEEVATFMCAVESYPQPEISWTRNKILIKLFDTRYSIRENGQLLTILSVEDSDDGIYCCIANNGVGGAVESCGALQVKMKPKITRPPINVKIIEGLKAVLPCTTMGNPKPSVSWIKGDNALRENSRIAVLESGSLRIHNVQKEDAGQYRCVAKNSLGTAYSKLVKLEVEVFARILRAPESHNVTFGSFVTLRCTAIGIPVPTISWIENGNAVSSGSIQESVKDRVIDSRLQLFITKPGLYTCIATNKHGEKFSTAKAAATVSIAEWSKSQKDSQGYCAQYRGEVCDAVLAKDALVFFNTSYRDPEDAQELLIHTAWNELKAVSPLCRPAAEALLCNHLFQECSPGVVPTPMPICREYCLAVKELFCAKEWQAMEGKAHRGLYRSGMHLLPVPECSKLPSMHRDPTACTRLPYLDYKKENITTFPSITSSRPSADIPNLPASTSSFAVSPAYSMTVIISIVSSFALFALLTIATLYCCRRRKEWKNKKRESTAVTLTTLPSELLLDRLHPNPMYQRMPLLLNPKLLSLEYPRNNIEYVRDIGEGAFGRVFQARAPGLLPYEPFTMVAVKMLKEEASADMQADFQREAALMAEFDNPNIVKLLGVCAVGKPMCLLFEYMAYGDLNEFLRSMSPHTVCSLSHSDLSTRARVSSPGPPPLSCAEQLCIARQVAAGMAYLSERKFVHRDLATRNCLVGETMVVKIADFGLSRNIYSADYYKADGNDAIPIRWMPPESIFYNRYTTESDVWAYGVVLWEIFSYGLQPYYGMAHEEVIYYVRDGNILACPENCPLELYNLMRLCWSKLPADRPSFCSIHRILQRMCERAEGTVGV

rat MuSK = target: T2, rat MuSK (rat, UniProt Q62838 22-494, limits assumed); test: Biacore, MuSK on chip (200RU), 66.7 nM mAb, dissociation pH 7.4
T2 construct: Coated on Biacore chip (200RU) or ELISA plate
T2 sequence (looked up): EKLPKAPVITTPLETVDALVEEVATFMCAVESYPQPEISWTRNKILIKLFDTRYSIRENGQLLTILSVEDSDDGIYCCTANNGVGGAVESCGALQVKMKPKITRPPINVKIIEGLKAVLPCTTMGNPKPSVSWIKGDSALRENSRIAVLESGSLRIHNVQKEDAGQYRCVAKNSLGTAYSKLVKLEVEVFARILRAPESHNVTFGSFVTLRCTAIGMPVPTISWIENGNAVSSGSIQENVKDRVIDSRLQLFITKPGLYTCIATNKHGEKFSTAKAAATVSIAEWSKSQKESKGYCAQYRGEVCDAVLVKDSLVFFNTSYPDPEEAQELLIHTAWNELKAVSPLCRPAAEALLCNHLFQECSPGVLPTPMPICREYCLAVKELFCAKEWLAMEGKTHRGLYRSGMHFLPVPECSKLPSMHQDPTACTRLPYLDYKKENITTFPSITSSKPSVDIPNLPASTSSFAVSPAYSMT
Method in brief: (§1)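 Sensor chip coated in parallel with cynomolgus monkey, rat and mouse MuSK. Antibody applied at a single concentration; association and dissociation kinetic parameters calculated from the sensorgrams.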

mouse MuSK = target: T3, mouse MuSK (mouse, UniProt Q61006 22-494, limits assumed); test: as above
T3 construct: Coated on ELISA plates or on the Biacore chip; also called full length mouse MuSK; mouse MuSK (in house produced in HEK293 cells)
T3 sequence (looked up): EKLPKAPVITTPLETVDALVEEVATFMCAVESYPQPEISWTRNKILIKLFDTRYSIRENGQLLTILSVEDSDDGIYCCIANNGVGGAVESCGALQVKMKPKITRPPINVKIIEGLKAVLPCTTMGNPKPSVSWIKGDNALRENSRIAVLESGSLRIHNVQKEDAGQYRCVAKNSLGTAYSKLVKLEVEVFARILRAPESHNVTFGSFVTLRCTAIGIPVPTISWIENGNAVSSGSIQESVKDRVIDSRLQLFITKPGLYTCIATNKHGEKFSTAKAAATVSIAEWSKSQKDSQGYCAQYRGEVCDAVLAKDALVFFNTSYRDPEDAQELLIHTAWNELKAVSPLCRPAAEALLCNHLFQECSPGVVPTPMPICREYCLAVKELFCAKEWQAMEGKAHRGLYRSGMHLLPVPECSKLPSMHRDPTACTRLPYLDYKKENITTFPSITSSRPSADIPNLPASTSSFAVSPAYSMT
Method in brief: as §1

[2] = target: T4, hECD: full-length extracellular region of human MuSK (E22 to T495) with C-terminal Avi- and His6-tags (human, UniProt O15146 22-495, biotinylated in vitro using the BirA enzyme); test: bead-binding assay, Fab format: biotinylated antigen on streptavidin beads, flow cytometry, 1:1 fit; average ± s.d., n=3
T4 construct: also called human ECD; not shown: Avi- and His6-tags
T4 sequence: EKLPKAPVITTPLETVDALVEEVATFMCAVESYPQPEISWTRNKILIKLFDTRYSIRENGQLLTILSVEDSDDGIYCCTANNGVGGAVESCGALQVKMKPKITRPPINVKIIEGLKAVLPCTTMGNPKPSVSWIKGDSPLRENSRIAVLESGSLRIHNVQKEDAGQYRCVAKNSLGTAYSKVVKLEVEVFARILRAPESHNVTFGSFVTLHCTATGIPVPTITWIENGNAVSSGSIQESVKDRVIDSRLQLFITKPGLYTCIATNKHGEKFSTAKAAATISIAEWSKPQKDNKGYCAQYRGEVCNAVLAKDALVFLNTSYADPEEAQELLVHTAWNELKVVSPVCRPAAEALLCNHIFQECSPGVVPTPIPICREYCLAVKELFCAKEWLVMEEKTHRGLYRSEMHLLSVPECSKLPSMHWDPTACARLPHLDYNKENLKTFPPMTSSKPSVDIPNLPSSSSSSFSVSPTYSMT

Binder | % Phosphorylation Induced in C2C12 Mouse Assay, Assay 1 [1] [% versus agrin] | % Phosphorylation Induced in C2C12 Mouse Assay, Assay 2 [1] [% versus agrin] | % Phosphorylation Induced in C2C12 Mouse Assay, Assay 3 [1] [% versus agrin] | % Phosphorylation Induced in C2C12 Mouse Assay, Average [1] [% versus agrin] | R0 (rat MuSK) [RU] | koff (rat MuSK) [s⁻¹] | kon (rat MuSK) [M⁻¹ s⁻¹] | R0 (mouse MuSK) [RU] | koff (mouse MuSK) [s⁻¹] | kon (mouse MuSK) [M⁻¹ s⁻¹] | Kd [2] [nM]
B1 | 74 | 94 | 64 | 77 | 162 | 0.00186 | 1.14e+06 | 195 | 0.00061 | 1.13e+06 | –
B2 | – | – | – | – | – | – | – | – | – | – | 0.86
B3 | – | – | – | – | – | – | – | – | – | – | 0.16
